Assay results from patent publication US20250222127A1, “COMPOSITIONS AND METHODS FOR TREATING AND PREVENTING TRANSPLANT-ASSOCIATED INJURY” (MUSC Foundation For Research Development, priority 2016, published 2025).

Assays:
allogeneic grafts = test: Graft survival with B4-Crry and subtherapeutic tacrolimus; assay type: in vivo
Method: FIG. 6 depicts the results of example experiments depicting the survival curve from B4-Crry and subtherapeutic tacrolimus.
Experiments were conducted to examine the effects of B4-Crry in combination with sub-therapeutic tacrolimus (also known as FK506). Tacrolimus was given at 1 mg/kg/day. […] Thus, untreated allogeneic grafts reject at the same extent as the subtherapeutic Tacrolimus treated animals. B4-Crry was given at 0 and 24 hours post-transplant and Tacrolimus was given at 1 mg/kg/day for the duration of the experiment (until full rejection of the graft).

[1] = tested on: post-ischemic human brain; test: Binding to normal and ischemic brain samples from stroke patients
Method: (§1) A therapeutic strategy that exploited this post-ischemia recognition system of natural antibodies was then developed and characterized. Based on neoepitope identification, an anti-annexin-IV single chain antibody (B4scFv) and an scFv linked to Crry (B4scFv-Crry) was constructed. […] Further, post-ischemic expression of the B4scFv neoepitope has been observed in multiple tissues/organs in both mouse and humans. […] Liver biopsies were obtained from human donor livers following Tx and 1 hour reperfusion. […] Similar data was obtained with normal and ischemic brain samples obtained from stroke patients. Finally, it is shown herein that a decrease in anti-annexin IV Abs in human serum 24 hours after cardiac Tx as compared to pre-Tx levels (note that levels were not decreased in 2 patients, which is likely due to transfusion volume) (Table 1). […] In certain aspects, there may be benefits of a neoepitope vs. C3d targeting approach for protection against IRI in a transplant. […] Second, the targeting vehicle itself contributes to therapeutic activity by blocking the binding of complement activating pathogenic IgM, which in turn reduces the binding of Clq and MBL, which can impact inflammation, endothelial activation, cell trafficking, and Ag-presentation. Third, it is likely less immunosuppressive since not all sites of infection and C3 deposition will be targeted with complement inhibition.

transplanted heart = test: Cardiac allograft transplant model (B4scFv targeting strategy); assay type: in vivo, mice
Method: as §1

annexin IV = target: T1, annexin IV (Homo sapiens, UniProt P09525); test: Immunohistochemistry of human donor liver biopsies following Tx and 1 hour reperfusion; assay type: binding
T1 construct: Liver biopsies were obtained from human donor livers following Tx and 1 hour reperfusion; from tissue; host or cells: human donor liver biopsies after transplantation and 1 hour reperfusion
T1 sequence (P09525 2-319 limits assumed): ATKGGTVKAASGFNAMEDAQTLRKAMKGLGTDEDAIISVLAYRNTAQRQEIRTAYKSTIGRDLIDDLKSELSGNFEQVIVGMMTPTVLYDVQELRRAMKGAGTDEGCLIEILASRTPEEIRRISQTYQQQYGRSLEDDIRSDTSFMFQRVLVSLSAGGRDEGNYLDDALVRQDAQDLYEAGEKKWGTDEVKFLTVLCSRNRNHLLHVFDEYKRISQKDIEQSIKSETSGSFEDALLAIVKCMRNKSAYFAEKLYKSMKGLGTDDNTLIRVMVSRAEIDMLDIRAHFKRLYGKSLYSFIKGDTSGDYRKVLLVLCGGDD
Method: as §1

VC isografts = test: Ischemia reperfusion injury of VC isografts, histology scoring of skin and muscle; assay type: in vivo; conditions: VC isografts in treated wild type mice
Method: Experiments were conducted to evaluate the effects of antibody-targeted complement inhibition on acute graft injury. VC isografts were transplanted into Rag −/− mice or wildtype mice. Mice were treated with PBS, B4 IgM mAb or B4-Crry. Isolated VCAs were stained and scored using a histology scoring system.

[2] = target: T2, annexin IV in post-ischemic mouse tissue (transplanted heart, brain-dead donor cardiac grafts, liver) (mouse, UniProt P97429 1-319, limits assumed); test: perfusion of radiolabeled (125I) B4scFv-Crry through cardiac grafts of brain-dead or living donors, counted after flush
T2 construct: The target was whole grafts or tissue
T2 sequence (looked up): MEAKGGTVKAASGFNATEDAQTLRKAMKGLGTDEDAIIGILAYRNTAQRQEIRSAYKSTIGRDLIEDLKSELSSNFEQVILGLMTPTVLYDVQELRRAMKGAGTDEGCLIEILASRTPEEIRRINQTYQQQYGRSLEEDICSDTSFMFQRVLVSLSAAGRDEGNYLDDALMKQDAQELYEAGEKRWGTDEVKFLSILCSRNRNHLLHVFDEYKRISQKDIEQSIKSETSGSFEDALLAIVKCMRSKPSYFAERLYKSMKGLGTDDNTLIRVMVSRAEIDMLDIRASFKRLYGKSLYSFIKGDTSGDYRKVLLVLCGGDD
Method: FIG. 5 depicts the Binding of ¹²⁵I-B4-Crry after perfusion of grafts of BD (3 hours) or living donors. […] After 5 minutes, flush with 0.5 ml PBS, weigh and count.
In this experiment, B4scFv-Crry was administered to the donor hearts as a constituent of the UW preservation solution. […] The donor heart was then isolated and perfused with 0.5 mL ice cold UW or I¹²⁵-B4scFv-Crry via the proximal aortic arch.

[3] = allograft transplant model, recipients with full natural antibody repertoire

C=CC[C@@H]1/C=C(\C)C[C@H](C)C[C@H](OC)[C@H]2O[C@@](O)(C(=O)C(=O)N3CCCC[C@H]3C(=O)O[C@H](/C(C)=C/[C@@H]3CC[C@@H](O)[C@H](OC)C3)[C@H](C)[C@@H](O)CC1=O)[C@H](C)C[C@@H]2OC [Tacrolimus, reference compound] was tested. Which graft survival (allogeneic grafts; tacrolimus alone, 1 mg/kg/day (subtherapeutic)) did it give?
Its graft survival is “does not prolong survival”.

B1: B4scFv-Crry: anti-annexin-IV single chain antibody (B4scFv) linked to Crry; B4Crry amino acid sequence SEQ ID NO: 62 (protein)
chain: MSVPTQVLGLLLLWLTDARCVKLQESGPELVKPGASVKISCKASGYTFTDYYMNWVKQSHGKSLEWIGDINPNNGGTSYNQKFKGKATLTVDKSSSTAYMELRSLTSEDSAVYYCARYDYAWYFDVWGQGTTVTVSSGGGGSGGGGSGGGGDVLMTQTPLSLPVSLGDQASISCRSSQSIVHSNGNTYLEWYLQKPGQSPKLLIYKVSNRFSGVPDRFSGSGSGTDFTLKISRVEAEDLGVYYCFQGSHVPYTFGGGTKLEIKRGGGGSGGGGSCPAPSQLPSAKPINLTDESMFPIGTYLLYECLPGYIKRQFSITCKQDSTWTSAEDKCIRKQCKTPSDPENGLVHVHTGIQFGSRINYTCNQGYRLIGSSSAVCVITDQSVDWDTEAPICEWIPCEIPPGIPNGDFFSSTREDFHYGMVVTYRCNTDARGKALFNLVGEPSLYCTSNDGEIGVWSGPPPQCIELNKCTPPPYVENAVMLSENRSLFSLRDIVEFRCHPGFIMKGASSVHCQSLNKWEPELPSCFKGVICRLPQEMSGFQKGLGMKKEYYYGENVTLECEDGYTLEGSSQSQCQSDGSWNPLLAKCVSRSIIEGRHHHHHH
modifications: B4Crry amino acid sequence
How did the “binding to post-ischemic human brain” value [1] turn out when B1 was run?
Its value is “directly bind”.

And the “cardiac graft inflammation and injury” value (transplanted heart; allograft transplant model)?
Its value is “significantly reduced”.

What about the “complement activation in graft” value (transplanted heart; [3]) of the same molecule?
The value was “blocked”.

And the “graft IgM binding” value (transplanted heart; [3])?
The value was “blocked”.

What about the “targeting to the transplanted heart” value (transplanted heart; cardiac Tx model) of the same molecule?
The value was “specifically targeted to the transplanted heart”.

And the immunity to infection (transplanted heart; compared with complement deficiency)?
Its immunity to infection is “did not affect immunity to infection”.

And the “staining of biopsies obtained post-Tx” value (annexin IV; human liver biopsies post-Tx)?
Its value is “stained biopsies obtained post-Tx”.

And the “staining of samples from normal biopsies” value (annexin IV; normal human liver biopsies)?
Its value is “not samples from normal biopsies”.

What about the “binding to post-ischemic human liver” value (annexin IV; post-ischemic human liver) of the same molecule?
The value was “directly bind”.

And the “Ischemia reperfusion injury (skin and muscle histopathological score)” value (VC isografts)?
Its value is “protection from IRI”.

And the graft survival (allogeneic grafts; B4-Crry at 0 and 24 hours post-transplant combined with tacrolimus 1 mg/kg/day, vs. tacrolimus alone)?
The graft survival was “significantly prolongs graft survival”.

B2: B4scFv-Crry (scFv)
chain: VKLQESGPELVKPGASVKISCKASGYTFTDYYMNWVKQSHGKSLEWIGDINPNNGGTSYNQKFKGKATLTVDKSSSTAYMELRSLTSEDSAVYYCARYDYAWYFDVWGQGTTVTVSSGGGGSGGGGSGGGGDVLMTQTPLSLPVSLGDQASISCRSSQSIVHSNGNTYLEWYLQKPGQSPKLLIYKVSNRFSGVPDRFSGSGSGTDFTLKISRVEAEDLGVYYCFQGSHVPYTFGGGTKLEIKRGGGGSGGGGSCPAPSQLPSAKPINLTDESMFPIGTYLLYECLPGYIKRQFSITCKQDSTWTSAEDKCIRKQCKTPSDPENGLVHVHTGIQFGSRINYTCNQGYRLIGSSSAVCVITDQSVDWDTEAPICEWIPCEIPPGIPNGDFFSSTREDFHYGMVVTYRCNTDARGKALFNLVGEPSLYCTSNDGEIGVWSGPPPQCIELNKCTPPPYVENAVMLSENRSLFSLRDIVEFRCHPGFIMKGASSVHCQSLNKWEPELPSCFKGVICRLPQEMSGFQKGLGMKKEYYYGENVTLECEDGYTLEGSSQSQCQSDGSWNPLLAKCVSRSIIEGRHHHHHH
modifications: 125I radiolabel in the graft perfusion experiment (position not given)
notes: also called B4-Crry; B4Crry
Which “fold higher binding in BD vs. living donor grafts” value [2] does the source give for B2 here?
Its value is 7 fold.
